In US20260028391A1 (HUMABS BIOMED, published 2026):

Columns and labels:
[1] = target: fusion glycoprotein (F) of the RSV used in the GFP-based neutralization assay of Table 23 (respiratory syncytial virus); experiment: cell-based or functional assay
[2] = target: fusion glycoprotein (F) of the MPV (non-D280N) used in the GFP-based neutralization assay of Table 23 (metapneumovirus); experiment: cell-based or functional assay
[3] = target: RSV fusion glycoprotein (RSV-F) (respiratory syncytial virus); experiment: biolayer interferometry (BLI), rIgG1 with M428L/N434S
[4] = target: fusion glycoprotein (F) of RSV A GFP (Tables 41 and 42) (respiratory syncytial virus A); experiment: cell-based or functional assay
[5] = target: fusion glycoprotein (F) of RSV B GFP (Tables 41 and 42) (respiratory syncytial virus B); experiment: cell-based or functional assay
[6] = target: fusion glycoprotein (F) of MPV A GFP (Tables 41 and 43) (metapneumovirus A); experiment: cell-based or functional assay
[7] = target: fusion glycoprotein of the RSV used in the neutralization assay of Example 1 (respiratory syncytial virus (strain not …)); experiment: cell-based or functional assay
DS-Cav1 RSV F = target: T1, DS-Cav1 RSV F (respiratory syncytial virus); experiment: ELISA on DS-Cav1 RSV F
T1 construct: also called DC-VCav1

B1: MPH12-v17 (VH-FRGL-D62E/VL-D25S) (antibody, V domains shown)
VH: QVQLVESGGGLVKPGGSLRLSCAASGFTFSGFYMKWIRQAPGKGLEWVSSISASGSYTNYAESVEGRFTISRDNAKNSLYLQMNSLRAEDTAVYYCARGDSYCGASACHGEFFHKWGQGTLVTVSS
VL: QSVLTQPPSVSGAPGQRVTISCTGSSSNIGADFDVHWYQQLPGTAPKLLIYGNINRPSGVPDRFSGSRSGTSAFLAITRLQAEDEADYYCQSYDRSLHYVFGAGTKVTVL
notes: also called MPH12 VH-FRGL-D62E / MPH12 VL-D25S
[1]
  RSV IC 50 (ng/mL), GFP-based in vitro neutralization: 44.9 ng/mL
[2]
  MPV IC50 (ng/mL), GFP-based in vitro neutralization: 30.4 ng/mL
[3]
  Kd: 0.39 nM

B2: MPH12-v29 (VH-FRGL-D62E/VL-S26A) (antibody, V domains shown)
VH: QVQLVESGGGLVKPGGSLRLSCAASGFTFSGFYMKWIRQAPGKGLEWVSSISASGSYTNYAESVEGRFTISRDNAKNSLYLQMNSLRAEDTAVYYCARGDSYCGASACHGEFFHKWGQGTLVTVSS
VL: QSVLTQPPSVSGAPGQRVTISCTGSDANIGADFDVHWYQQLPGTAPKLLIYGNINRPSGVPDRFSGSRSGTSAFLAITRLQAEDEADYYCQSYDRSLHYVFGAGTKVTVL
notes: also called MPH12 VH-FRGL-D62E / MPH12 VL-S26A
[1]
  RSV IC 50 (ng/mL), GFP-based in vitro neutralization: 60.3 ng/mL
[2]
  MPV IC50 (ng/mL), GFP-based in vitro neutralization: 35.2 ng/mL
[3]
  Kd: 0.34 nM

B3: MPH12-v34 (VH-FRGL-S63A/VL-FRGL-D25S) (antibody, V domains shown)
VH: QVQLVESGGGLVKPGGSLRLSCAASGFTFSGFYMKWIRQAPGKGLEWVSSISASGSYTNYADAVEGRFTISRDNAKNSLYLQMNSLRAEDTAVYYCARGDSYCGASACHGEFFHKWGQGTLVTVSS
VL: QSVLTQPPSVSGAPGQRVTISCTGSSSNIGADFDVHWYQQLPGTAPKLLIYGNINRPSGVPDRFSGSKSGTSASLAITGLQAEDEADYYCQSYDRSLHYVFGTGTKVTVL
[1]
  RSV IC 50 (ng/mL), GFP-based in vitro neutralization: 48.6 ng/mL
[2]
  MPV IC50 (ng/mL), GFP-based in vitro neutralization: 31.9 ng/mL
[3]
  Kd: 0.5 nM

B4: MPH12-v35 (VH-FRGL-D62E/VL-FRGL-D25S) (antibody, V domains shown)
VH: QVQLVESGGGLVKPGGSLRLSCAASGFTFSGFYMKWIRQAPGKGLEWVSSISASGSYTNYAESVEGRFTISRDNAKNSLYLQMNSLRAEDTAVYYCARGDSYCGASACHGEFFHKWGQGTLVTVSS
VL: QSVLTQPPSVSGAPGQRVTISCTGSSSNIGADFDVHWYQQLPGTAPKLLIYGNINRPSGVPDRFSGSKSGTSASLAITGLQAEDEADYYCQSYDRSLHYVFGTGTKVTVL
[1]
  RSV IC 50 (ng/mL), GFP-based in vitro neutralization: 57.5 ng/mL
[2]
  MPV IC50 (ng/mL), GFP-based in vitro neutralization: 39.9 ng/mL
[3]
  Kd: 0.46 nM

B5: MPK190-rIgG1-LS (antibody, V domains shown)
VH: EVQLVESGGGLVKPGGSLTLSCAASGFSISGYGMNWVRQAPGRGLEWVASISASSTYIYYADSMKGRFTISRDNGKTSLYLQMKSLRAEDTAVYYCARAPIEPPYFDLWGRGTLVTVSS
VL: QSVLTQPPSVSGAPGQRVTISCTGSNSNIGAGYDVHWYQHLPGKAPKVLIYGNNNRPSVVPDRFSGSNSGASASLAISGLQAEDEADYFCQSYDRRLSGPIFGGGTKLTVL
[4]
  IC50 (ng/ml), RSV A GFP neutralization; sample MPK190-rIgG1-LS/4B6: 3.73 ng/mL
  IC50 (ng/ml), RSV A GFP neutralization; sample MPK190-rIgG1-LS/KYT: 3.88 ng/mL
  IC50 (ng/ml), RSV A GFP neutralization; stressed sample MPK190-rIgG1-LS day 0: 3.21 ng/mL
  IC50 (ng/ml), RSV A GFP neutralization; stressed sample MPK190-rIgG1-LS day 7: 2.94 ng/mL
  IC50 (ng/ml), RSV A GFP neutralization; stressed sample MPK190-rIgG1-LS day 12 (day 13 in Table 41): 7.02 ng/mL
[5]
  IC50 (ng/ml), RSV B GFP neutralization; sample MPK190-rIgG1-LS/4B6: 6.39 ng/mL
  IC50 (ng/ml), RSV B GFP neutralization; sample MPK190-rIgG1-LS/KYT: 3.36 ng/mL
  IC50 (ng/ml), RSV B GFP neutralization; stressed sample MPK190-rIgG1-LS day 0: 4.1 ng/mL
  IC50 (ng/ml), RSV B GFP neutralization; stressed sample MPK190-rIgG1-LS day 7: 4.4 ng/mL
  IC50 (ng/ml), RSV B GFP neutralization; stressed sample MPK190-rIgG1-LS day 12 (day 13 in Table 41): 4.51 ng/mL
[6]
  IC50 (ng/ml), MPV A GFP neutralization; sample MPK190-rIgG1-LS/4B6: 6.16 ng/mL
  IC50 (ng/ml), MPV A GFP neutralization; sample MPK190-rIgG1-LS/KYT: 7.9 ng/mL
  IC50 (ng/ml), MPV A GFP neutralization; stressed sample MPK190-rIgG1-LS day 0: 7.22 ng/mL
  IC50 (ng/ml), MPV A GFP neutralization; stressed sample MPK190-rIgG1-LS day 7: 5.8 ng/mL
  IC50 (ng/ml), MPV A GFP neutralization; stressed sample MPK190-rIgG1-LS day 13: 8.39 ng/mL

B6: MPK77-rIgG1-LS (antibody, V domains shown)
VH: EVQLVESGGGLVKPGGSLRLSCAASKSFSGYYMIWIRQAPGRGLEWIADISGSSTYTDYADSVKGRFTISRDNTRNTLYLQMNSLRPEDTAVYYCATEQVPSPGPFDLWGPGTLVTVSS
VL: QSVLTQPPSVSGAPGQRVIISCTGSSSNIGAGYDVHWYQQFPGTSPKLLIYRNTNRPSGVPDRFSGFKSGASAALAITGLQAEDEADYYCQSYDRSLSGWAFGGGTKVTVL
[4]
  IC50 (ng/ml), RSV A GFP neutralization: 6.77 ng/mL
[5]
  IC50 (ng/ml), RSV B GFP neutralization: 7.32 ng/mL
[6]
  IC50 (ng/ml), MPV A GFP neutralization: 12.9 ng/mL

B7: MPK104-rIgG1-LS (antibody, V domains shown)
VH: EVQLVESGGGLVKPGGSLRLSCAASGFTIDGYGMNWVRQAPGKGLEWVSSISASSNYIYYADSMKGRFTISRDNGKNSLYLQMHSLRVEDTGVYYCARAPLEPPYFDLWGRGTLVTVSS
VL: QSVLTQPPSVSGAPGQRVTISCSGGSSNIGAGYDVHWYQQVPGKGPKVLIYGNNNRPSGVPDRFSGSNFGASASLAITGLQADDEADYFCQSYDRRLGGPVFGGGTKLTVL
[4]
  IC50 (ng/ml), RSV A GFP neutralization: 7.44 ng/mL
[5]
  IC50 (ng/ml), RSV B GFP neutralization: 5.23 ng/mL
[6]
  IC50 (ng/ml), MPV A GFP neutralization: 6.79 ng/mL

B8: MPH12-rIgG1-LS (antibody, V domains shown)
VH: QVQLVESGGGLVKPGGSLRLSCVASGFTFSGFYMKWIRQAPGKGLEWVSSISASGSYTNYADSVEGRFTVSRDNAKNSLFLLMSSLRAEDTAVYYCARGDSYCGASACHGEFFHKWGQGTLVTVSS
VL: QSVLTQPPSVSGAPGQRVTISCTGSDSNIGADFDVHWYQQLPGTAPKLLIYGNINRPSGVPDRFSGSRSGTSAFLAITRLQAEDEADYYCQSYDRSLHYVFGAGTKVTVL
[4]
  IC50 (ng/ml), RSV A GFP neutralization: 6.55 ng/mL
[5]
  IC50 (ng/ml), RSV B GFP neutralization: 5.23 ng/mL
[6]
  IC50 (ng/ml), MPV A GFP neutralization: 13 ng/mL

B9: MPK169-v2 (antibody, V domains shown)
VH: EVQLVQSGAEVKKPGESLTISCQTSGYSFINYWIGWVRQMPGKGLEWMGVIYPFDSDTEYSPSFRGHVTISADKSINTAYLQWNSLGASDTAMYYCARFTFGIALVSGDVNGEGHAFDVWGRGTLVTVSS
VL: EIVLTQSPPTLSVSPGQRATLSCRASQSVADKLAWYQQRPGQAPRLLIYGASSRATGVPARFSGSGSETEFTLTITSLQSEDFALYYCHQYNNWPHAFGQGTRLVIK
[7]
  RSV Neutralization - IC50: 1.4 ng/mL

B10: MPH12 VH-FRGL-D62E / MPH12 VL-D25E (antibody, V domains shown)
VH: QVQLVESGGGLVKPGGSLRLSCAASGFTFSGFYMKWIRQAPGKGLEWVSSISASGSYTNYAESVEGRFTISRDNAKNSLYLQMNSLRAEDTAVYYCARGDSYCGASACHGEFFHKWGQGTLVTVSS
VL: QSVLTQPPSVSGAPGQRVTISCTGSESNIGADFDVHWYQQLPGTAPKLLIYGNINRPSGVPDRFSGSRSGTSAFLAITRLQAEDEADYYCQSYDRSLHYVFGAGTKVTVL
notes: MPH12 variant; VH and VL only
DS-Cav1 RSV F
  EC50: 39.7 ng/mL

B11: MPH12 VH-FRGL-D62E / MPH12 VL (antibody, V domains shown)
VH: QVQLVESGGGLVKPGGSLRLSCAASGFTFSGFYMKWIRQAPGKGLEWVSSISASGSYTNYAESVEGRFTISRDNAKNSLYLQMNSLRAEDTAVYYCARGDSYCGASACHGEFFHKWGQGTLVTVSS
VL: QSVLTQPPSVSGAPGQRVTISCTGSDSNIGADFDVHWYQQLPGTAPKLLIYGNINRPSGVPDRFSGSRSGTSAFLAITRLQAEDEADYYCQSYDRSLHYVFGAGTKVTVL
notes: MPH12 variant; VH and VL only
DS-Cav1 RSV F
  EC50: 51 ng/mL

B12: MPH12 VH / MPH12 VL-FRGL (antibody, V domains shown)
VH: QVQLVESGGGLVKPGGSLRLSCVASGFTFSGFYMKWIRQAPGKGLEWVSSISASGSYTNYADSVEGRFTVSRDNAKNSLFLLMSSLRAEDTAVYYCARGDSYCGASACHGEFFHKWGQGTLVTVSS
VL: QSVLTQPPSVSGAPGQRVTISCTGSDSNIGADFDVHWYQQLPGTAPKLLIYGNINRPSGVPDRFSGSKSGTSASLAITGLQAEDEADYYCQSYDRSLHYVFGTGTKVTVL
notes: MPH12 variant; VH and VL only
DS-Cav1 RSV F
  EC50: 35.8 ng/mL

B13: MPH12 VH / MPH12 VL-D25S (antibody, V domains shown)
VH: QVQLVESGGGLVKPGGSLRLSCVASGFTFSGFYMKWIRQAPGKGLEWVSSISASGSYTNYADSVEGRFTVSRDNAKNSLFLLMSSLRAEDTAVYYCARGDSYCGASACHGEFFHKWGQGTLVTVSS
VL: QSVLTQPPSVSGAPGQRVTISCTGSSSNIGADFDVHWYQQLPGTAPKLLIYGNINRPSGVPDRFSGSRSGTSAFLAITRLQAEDEADYYCQSYDRSLHYVFGAGTKVTVL
notes: MPH12 variant; VH and VL only
DS-Cav1 RSV F
  EC50: 23.5 ng/mL

B14: MPH12 VH / MPH12 VL-D25E (antibody, V domains shown)
VH: QVQLVESGGGLVKPGGSLRLSCVASGFTFSGFYMKWIRQAPGKGLEWVSSISASGSYTNYADSVEGRFTVSRDNAKNSLFLLMSSLRAEDTAVYYCARGDSYCGASACHGEFFHKWGQGTLVTVSS
VL: QSVLTQPPSVSGAPGQRVTISCTGSESNIGADFDVHWYQQLPGTAPKLLIYGNINRPSGVPDRFSGSRSGTSAFLAITRLQAEDEADYYCQSYDRSLHYVFGAGTKVTVL
notes: MPH12 variant; VH and VL only
DS-Cav1 RSV F
  EC50: 43.8 ng/mL

B15: MPH12 VH / MPH12 VL-S26A (antibody, V domains shown)
VH: QVQLVESGGGLVKPGGSLRLSCVASGFTFSGFYMKWIRQAPGKGLEWVSSISASGSYTNYADSVEGRFTVSRDNAKNSLFLLMSSLRAEDTAVYYCARGDSYCGASACHGEFFHKWGQGTLVTVSS
VL: QSVLTQPPSVSGAPGQRVTISCTGSDANIGADFDVHWYQQLPGTAPKLLIYGNINRPSGVPDRFSGSRSGTSAFLAITRLQAEDEADYYCQSYDRSLHYVFGAGTKVTVL
notes: MPH12 variant; VH and VL only
DS-Cav1 RSV F
  EC50: 50.8 ng/mL
